Test results from article PMC5625350 (Nature structural & molecular biology, 2017).
Positions count from the first letter of the chain named. Numbers in names are those of the source.

Assays:
SEC = biological target: the molecule itself; experiment: SEC
cross-linking = biological target: the molecule itself; experiment: cross-linking
SAXS = biological target: the molecule itself; experiment: SAXS
[1] = biological target: Rad50 WT (in MRN);Mre11;Nbs1 (Homo sapiens;Homo sapiens;Homo sapiens, UniProt Q92878;P49959;O60934 1-1312;1-708;1-754, ||); experiment: EMSA
[2] = biological target: Rad50 dCC (in MRN);Mre11;Nbs1 (Homo sapiens;Homo sapiens;Homo sapiens, UniProt Q92878;P49959;O60934 1-1312;1-708;1-754, del614-668;del702-750||); experiment: EMSA
crystal structure = biological target: the molecule itself; experiment: crystal structure

B1: Rad50ΔCC (Rad50HCC182 with residues 614-668 and 702-750 deleted) (domain or fragment, human, UniProt Q92878 585-766, looked up)
chain: KEINQTRDRLAKLNKELASSEQNKNHINNFITQLTDENQSCCPVCQRVFQTEAELQEVISDLRNKLQNVNRDIQRLKN
binding result (SEC): binds

B2: Rad50ΔCC K599C (domain or fragment, human, UniProt Q92878 585-766, looked up)
chain: B1 chain with K15C
binding result (cross-linking): binds

B3: HsRad50HCC construct that contains the two interfaces (residues 635 to 730) (domain or fragment, human, UniProt Q92878 635-730, looked up)
chain: SQDFESDLDRLKEEIEKSSKQRAMLAGATAVYSQFITQLTDENQSCCPVCQRVFQTEAELQEVISDLQSKLRLAPDKLKSTESELKKKEKRRDEML
binding result (SAXS): binds

B4: 83-mer dsDNA (dsDNA)
DNA 1: TTGATAAGAGGTCATTTTTGCGGATGGCTTAGAGCTTAATTGCTGAATCTGGTGCTGTAGCTCAACATGTTTTAAATATGCAA
DNA 2: TTGCATATTTAAAACATGTTGAGCTACAGCACCAGATTCAGCAATTAAGCTCTAAGCCATCCGCAAAAATGACCTCTTATCAA
binding result [1]: binds | binding result [2]: binds

B5: human Rad50 hook and coiled-coil domain, HsRad50HCC182 (residues 585 to 766) (domain or fragment, UniProt Q92878 585-766, looked up)
chain: KEINQTRDRLAKLNKELASSEQNKNHINNELKRKEEQLSSYEDKLFDVCGSQDFESDLDRLKEEIEKSSKQRAMLAGATAVYSQFITQLTDENQSCCPVCQRVFQTEAELQEVISDLQSKLRLAPDKLKSTESELKKKEKRRDEMLGLVPMRQSIIDLKEKEIPELRNKLQNVNRDIQRLKN
binding result (crystal structure): binds

B6: HsRad50HCC182 S738C (domain or fragment, human, UniProt Q92878 585-766, looked up)
chain: B5 chain with S154C
binding result (cross-linking): binds

B7: Rad50-48 (S679R, P682R) Rad50HCC182 K599C (domain or fragment, human, UniProt Q92878 585-766, looked up)
chain: B5 chain with K15C, S95R, P98R
binding result (cross-linking): binds

B8: HsRad50HCC182 K599C (domain or fragment, human, UniProt Q92878 585-766, looked up)
chain: B5 chain with K15C
binding result (cross-linking): binds
